The text below walks through data of patent US20250084178A1 (ARCUS BIOSCIENCES, published 2025).

The target in assay [1] is T1, human CD39 expressed on the cell surface (human, UniProt P49961 1-510).
T1 sequence: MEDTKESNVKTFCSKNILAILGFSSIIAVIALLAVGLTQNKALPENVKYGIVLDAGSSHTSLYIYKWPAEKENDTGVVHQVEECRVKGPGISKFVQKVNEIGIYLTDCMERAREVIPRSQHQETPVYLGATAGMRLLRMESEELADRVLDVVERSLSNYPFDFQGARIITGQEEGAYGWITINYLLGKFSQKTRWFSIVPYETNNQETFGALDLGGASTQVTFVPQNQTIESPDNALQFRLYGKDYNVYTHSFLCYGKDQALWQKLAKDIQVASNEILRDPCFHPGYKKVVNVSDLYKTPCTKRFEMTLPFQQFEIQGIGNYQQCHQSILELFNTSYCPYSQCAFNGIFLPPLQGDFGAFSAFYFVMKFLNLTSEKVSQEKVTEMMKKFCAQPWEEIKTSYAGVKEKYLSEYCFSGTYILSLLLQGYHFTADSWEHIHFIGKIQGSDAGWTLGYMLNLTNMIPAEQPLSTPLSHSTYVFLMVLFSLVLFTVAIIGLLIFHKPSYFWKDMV
In words: cell-based or functional assay.

The target in assay [2] is T2, soluble His-tagged human CD39 ECD protein (human, UniProt P49961 38-478).
T2 construct: also called human CD39 ECD His-tagged antigen; Sino Biological Cat. No. 16020-H08B
T2 sequence: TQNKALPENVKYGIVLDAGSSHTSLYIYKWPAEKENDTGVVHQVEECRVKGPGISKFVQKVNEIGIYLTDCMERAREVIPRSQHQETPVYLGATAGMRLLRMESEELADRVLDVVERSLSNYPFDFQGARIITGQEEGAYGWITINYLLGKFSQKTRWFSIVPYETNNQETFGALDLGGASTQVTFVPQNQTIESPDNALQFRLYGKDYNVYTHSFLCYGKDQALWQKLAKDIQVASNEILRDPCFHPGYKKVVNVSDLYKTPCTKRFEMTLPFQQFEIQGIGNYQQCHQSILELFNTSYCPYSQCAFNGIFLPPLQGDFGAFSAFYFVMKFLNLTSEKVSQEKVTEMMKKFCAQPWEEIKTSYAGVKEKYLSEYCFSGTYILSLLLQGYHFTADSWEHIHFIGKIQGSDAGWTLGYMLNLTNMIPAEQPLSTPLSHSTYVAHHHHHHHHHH
The assay can be described thus: SPR (Biacore 8K), antibody captured via anti-human Fc, CD39 ECD analyte. (Surface plasmon resonance follows binding to a sensor surface in real time, without labels.)

Assay [3] addresses T1, human CD39 expressed on the cell surface. In words: cell-based or functional assay. The source holds these as a separate data set.
For assay [4] the target is unchanged. In words: cell-based or functional assay. The source holds these as a separate data set.
The target is the same in assay [5]. The assay can be described thus: cell-based or functional assay. This is another data set of the same source.
For assay [6] the target is unchanged. In words: flow cytometry on purified human CD14+ monocytes, 400 uM ATP. (In flow cytometry, cells or beads pass a laser one at a time.)
In assay [7] the target is T2, soluble His-tagged human CD39 ECD …. The assay can be described thus: SPR (Biacore 8K), antibody captured via anti-human Fc, CD39 ECD analyte. The source holds these as a separate data set.
Assay [8] concerns the target T3, cynomolgus monkey CD39 expressed on HEK-293 cells (cynomolgus monkey, UniProt P49961 5-510 (human entry)).
T3 construct: also called Cynomolgus Monkey CD39-HEK293
T3 chain: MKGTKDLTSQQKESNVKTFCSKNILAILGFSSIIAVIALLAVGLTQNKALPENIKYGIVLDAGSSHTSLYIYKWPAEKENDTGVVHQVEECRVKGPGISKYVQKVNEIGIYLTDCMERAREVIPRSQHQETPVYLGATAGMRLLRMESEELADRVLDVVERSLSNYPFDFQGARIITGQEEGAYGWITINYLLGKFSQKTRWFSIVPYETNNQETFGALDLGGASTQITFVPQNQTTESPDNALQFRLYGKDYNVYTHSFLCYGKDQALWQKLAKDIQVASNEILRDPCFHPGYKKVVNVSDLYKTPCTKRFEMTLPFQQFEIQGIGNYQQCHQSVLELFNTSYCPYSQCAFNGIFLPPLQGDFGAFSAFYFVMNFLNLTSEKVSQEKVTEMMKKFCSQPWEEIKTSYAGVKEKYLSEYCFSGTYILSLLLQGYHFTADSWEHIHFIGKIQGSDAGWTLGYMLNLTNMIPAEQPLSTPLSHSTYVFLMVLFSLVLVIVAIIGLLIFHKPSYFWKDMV
The assay can be described thus: FACS on HEK293 cells overexpressing cynomolgus CD39.

For assay [9], the target named is T1, human CD39 expressed on the cell surface. In words: cell-based or functional assay. The source holds these as a separate data set.
Assay [10] shares this target. The assay can be described thus: FACS on CHO-K1 cells overexpressing human CD39.
The target is the same in assay [11]. In words: flow cytometry on purified human CD14+ monocytes, 0 uM ATP.

One may read the Kd as the equilibrium constant for the complex coming apart. By EC50 is commonly meant the concentration giving half of the maximal effect. Usually koff stands for a measure of how fast the partners let go of each other. A word on the kon: it is the rate constant with which the complex forms.

Where two headings read alike, the source gives them in different places.

B1: hu39.2_IGG4.P (antibody, human IgG4 S228P, kappa)
heavy: not shown
light: DIVLTQSPASLAVSPGQRATITCRASEGVKSYMHWYQQKPGQPPKLLIYKASNLASGVPARFSGSGSGTDFTLTINPVEADDTANYYCQQSWNDPTFGQGTKLEIKRTVAAPSVFIFPPSDEQLKSGTASVVCLLNNFYPREAKVQWKVDNALQSGNSQESVTEQDSKDSTYSLSSTLTLSKADYEKHKVYACEVTHQGLSSPVTKSFNRGEC
notes: humanized variant of antibody 39 (VH1 + VL1), IgG4 (S228P)
On to B1, for which, in [1], the “IC50, CD39 enzymatic inhibition on human monocytes, 400 uM ATP” value is 0.14 nM and the “Max Inhibition (%), human monocytes, 400 uM ATP” value was 80%. In assay [2], this molecule returned a Kd of 0.0936 nM.

B2: hu39.4_IGG4.P (antibody, human IgG4 S228P, kappa)
heavy: not shown
light: B1 light
notes: humanized variant of antibody 39 (VH3 + VL1), IgG4 (S228P)
Consider B2, for which, in assay [1], the “IC50, CD39 enzymatic inhibition on human monocytes, 400 uM ATP” value worked out at 0.45 nM and the “Max Inhibition (%), human monocytes, 400 uM ATP” value was 73%. In assay [3], the “IC50, CD39 enzymatic inhibition on SK-MEL-5 cells, 20 uM ATP” value was 0.13 nM and the “Max Inhibition (%), SK-MEL-5 cells” value came out at 60%. In [4], the “IC50, CD39 enzymatic inhibition on THP-1 cells, 20 uM ATP” value came out at 0.064 nM and the “Max Inhibition (%), THP-1 cells” value stood at 76%. For the same molecule, in assay [5], the “IC50, CD39 enzymatic inhibition on human monocytes, 20 uM ATP” value turned out to be 0.13 nM and the “Max Inhibition (%), human monocytes, 20 uM ATP” value was determined as 71%. In addition, the dissociation constant Kd in assay [2] stood at 0.185 nM. In [6], this molecule came in with an EC50 of 10 nM.

B3: hu31.7_IGG4.P (antibody, human IgG4 S228P, kappa, V domains shown)
VH: EVQLVQSGAEVKKPGATVKISCKVSGDSITAYFMHWVQQAPGKGLEWMGRIDPDHERTKYAEKFKNRVTITADTSTNTVYMELSSLRSEDTAVYYCATERVPGFETDYWGQGVMVTVSS
VL: DIVMTQSPDLAVSLGERATINCRTQQTVDHYGTTYMNWYQQKPGQPPKLLIYLASSLASGVPDRFSGSGSGTDFTLTISSLQAEDVAVYYCQQSRNLWTFGGGTKVEIKR
notes: humanized variant of antibody 31 (VH2 + VL2), IgG4 (S228P)
For the molecule B3, in assay [7], the affinity, expressed as Kd, was 0.496 nM; the koff was 0.000615 s⁻¹; the kon came to 1.24e+06 M⁻¹ s⁻¹. Further, in assay [8], a half-maximal effect (EC50) was put at 1.01 nM. Also, the “Human THP-1 CD39 inhibition IC50” value in assay [9] was determined as 0.25 nM. In addition, the concentration giving a half-maximal response (EC50) in assay [10] worked out at 1.83 nM.

B4: hu31.4_IGG4.P (antibody, human IgG4 S228P, kappa)
heavy: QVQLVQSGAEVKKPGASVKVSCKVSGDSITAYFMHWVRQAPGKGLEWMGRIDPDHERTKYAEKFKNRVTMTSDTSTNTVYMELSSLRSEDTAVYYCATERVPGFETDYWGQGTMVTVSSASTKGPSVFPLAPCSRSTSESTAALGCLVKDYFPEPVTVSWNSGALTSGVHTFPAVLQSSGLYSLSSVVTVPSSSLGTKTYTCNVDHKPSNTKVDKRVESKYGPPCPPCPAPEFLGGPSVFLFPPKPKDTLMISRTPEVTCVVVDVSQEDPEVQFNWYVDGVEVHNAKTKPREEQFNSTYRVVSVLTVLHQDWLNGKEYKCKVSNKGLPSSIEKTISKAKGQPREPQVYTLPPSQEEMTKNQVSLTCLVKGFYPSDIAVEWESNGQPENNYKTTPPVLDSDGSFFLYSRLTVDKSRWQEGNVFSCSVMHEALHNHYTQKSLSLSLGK
light: DIVLTQSPALAVSPGQRATITCRTQQTVDHYGTTYMNWYQQKPGQPPKLLIYLASSLASGVPARFSGSGSGTDFTLTINPVEADDTANYYCQQSRNLWTFGGGTKVEIKRTVAAPSVFIFPPSDEQLKSGTASVVCLLNNFYPREAKVQWKVDNALQSGNSQESVTEQDSKDSTYSLSSTLTLSKADYEKHKVYACEVTHQGLSSPVTKSFNRGEC
notes: humanized variant of antibody 31 (VH1 + VL1), IgG4 (S228P)
Molecule B4 gave a Kd in assay [7] of 0.176 nM. Moreover, the EC50 in assay [11] came to 16 nM; in assay [8] it was 0.78 nM; in assay [10] it was 1.7 nM; in assay [6], 26 nM. In addition, the “IC50, CD39 enzymatic inhibition on SK-MEL-5 cells, 20 uM ATP” value in assay [3] turned out to be 1.1 nM. Further, the “Max Inhibition (%), SK-MEL-5 cells” value in assay [3] is 71%. The “IC50, CD39 enzymatic inhibition on THP-1 cells, 20 uM ATP” value in assay [4] turned out to be 0.095 nM. Besides, the “Max Inhibition (%), THP-1 cells” value in [4] stood at 73%. For the same molecule, the “IC50, CD39 enzymatic inhibition on human monocytes, 20 uM ATP” value in [5] amounted to 0.59 nM. Further, the “Max Inhibition (%), human monocytes, 20 uM ATP” value in [5] came out at 74%. The “Human THP-1 CD39 inhibition IC50” value in [9] was 0.26 nM.

B5: hu31.6_IGG4.P (antibody, human IgG4 S228P, kappa, V domains shown)
VH: B3 VH
VL: DIVLTQSPALAVSPGQRATITCRTQQTVDHYGTTYMNWYQQKPGQPPKLLIYLASSLASGVPARFSGSGSGTDFTLTINPVEADDTANYYCQQSRNLWTFGGGTKVEIKR
notes: humanized variant of antibody 31 (VH2 + VL1), IgG4 (S228P)
In [7], B5 yielded an equilibrium dissociation constant (Kd) of 0.613 nM, a koff of 0.000684 s⁻¹ and a kon of 1.12e+06 M⁻¹ s⁻¹. The response in assay [8] was half-maximal at 0.81 nM (EC50). Moreover, the “Human THP-1 CD39 inhibition IC50” value in [9] is 0.3 nM. In assay [10], the EC50 amounted to 1.69 nM.
